Target: the molecule itself
Test: SEC

B1: recombinant His-tagged TRUSS_(1-797) (natural protein, UniProt Q9JLV2 1-797, looked up)
chain: MAAAPAAAGAGASRGRRLAATAAAWGGWGGRPRPGNILLQLRQGQLTGRGLVRAVQFTETFLTERDKLSKWSGIPQLLLKLYATSHLHSDFVECQSILKEISPLLSMEAMAFVTEDRKFTQEATYPNTYIFDLFGGVDLLVEILMRPTISIRGQKLKISDEMSKDCLSILYNTCVCTEGVTKRLAEKNDFVIFLFTLMTSKKTFLQTATLIEDILGVKKEMIRLDEVPNLSSLVSNFDQQQLANFCRILAVTISEMDTGNDDKHTLLAKNAQQKKSLSLGPSAAEINQAALLSIPGFVERLCKLATRKVSESTGTASFLQELEEWYTWLDNALVLDALMRVANEESEHNQAPTVFPSLGTSEEGGLPHTSARAQLPQSMKIMHEIMYKLEVLYVLCVLLMGRQRNQVHRMIAEFKLIPGLNNLFDKLIWRKHSASALVLHGHNQNCDCSPDITLKIQFLRLLQSFSDHHENKYLLLNNQELNELSAISLKANIPEVEAVLNTDRSLVCDGKRGLLTRLLQVMKKEPAESSFRFWQARAVESFLRGTTSYADQMFLLKRGLLEHILYCIVDSECKSRDVLQSYFDLLGELMKFNVDAFKRFNKYINTDAKFQVFLKQINSSLVDSNMLVRCVTLSLDRFENQVDMKVAEVLSECRLLAYISQVPTQMSFLFRLINIIHVQTLTQENVSCLNTSLVILMLARRKERLPLYLRLLQRMEHSKKYPGFLLNNFHNLLRFWQQHYLHKDKDSTCLENSSCISFSYWKETVSILLNPDRQSPSALVSYIEEPYMDIDRDFTEE
With B1 the “stoichiometry N” value was 3.
